{"source": "patent CN111138537A", "about": "(REYOUNG (SUZHOU) BIOPHARMACEUTICAL CO LTD, dated 2020)", "binders": {"B1": {"name": "单域抗体NB22 (VHH)", "VHH": "QVQLQESGGGSVQAGGSLRLSCAASAYTYSTTCMAWFRQAPGKEREKVATITTGGTYPYYADSVKGRFTISQDNAKNTVYLQMNSLKPEDTAMYYCAADASWGCRLSGSWSTVYNYWGQGTQVTVSS", "notes": "Camel (Bactrian) VHH from a phage display library; expressed in E. coli periplasm with a C-terminal 6x His tag and nickel-purified; also called 抗人血清白蛋白单域抗体"}}, "target": "T1, 人血清白蛋白 (human, UniProt P02768 25-609)", "T1 construct": "also called HSA; human serum albumin", "test": "SPR (Biacore T200), HSA amine-coupled to CM5 chip, NB22 as analyte"}
{"binder": "B1", "values": [{"measurement": "Kd", "value": 0.683, "unit": "nM"}]}
